Experimental data reported in IntAct's records for PubMed 26900326.

B1: Molecular chaperone MKKS (Homo sapiens), Q9NPJ1 (parent)
chain: MSRLEAKKPSLCKSEPLTTERVRTTLSVLKRIVTSCYGPSGRLKQLHNGFGGYVCTTSQSSALLSHLLVTHPILKILTASIQNHVSSFSDCGLFTAILCCNLIENVQRLGLTPTTVIRLNKHLLSLCISYLKSETCGCRIPVDFSSTQILLCLVRSILTSKPACMLTRKETEHVSALILRAFLLTIPENAEGHIILGKSLIVPLKGQRVIDSTVLPGILIEMSEVQLMRLLPIKKSTALKVALFCTTLSGDTSDTGEGTVVVSYGVSLENAVLDQLLNLGRQLISDHVDLVLCQKVIHPSLKQFLNMHRIIAIDRIGVTLMEPLTKMTGTQPIGSLGSICPNSYGSVKDVCTAKFGSKHFFHLIPNEATICSLLLCNRNDTAWDELKLTCQTALHVLQLTLKEPWALLGGGCTETHLAAYIRHKTHNDPESILKDDECTQTELQLIAEAFCSALESVVGSLEHDGGEILTDMKYGHLWSVQADSPCVANWPDLLSQCGCGLYNSQEELNWSFLRSTRRPFVPQSCLPHEAVGSASNLTLDCLTAKLSGLQVAVETANLILDLSYVIEDKN
partner: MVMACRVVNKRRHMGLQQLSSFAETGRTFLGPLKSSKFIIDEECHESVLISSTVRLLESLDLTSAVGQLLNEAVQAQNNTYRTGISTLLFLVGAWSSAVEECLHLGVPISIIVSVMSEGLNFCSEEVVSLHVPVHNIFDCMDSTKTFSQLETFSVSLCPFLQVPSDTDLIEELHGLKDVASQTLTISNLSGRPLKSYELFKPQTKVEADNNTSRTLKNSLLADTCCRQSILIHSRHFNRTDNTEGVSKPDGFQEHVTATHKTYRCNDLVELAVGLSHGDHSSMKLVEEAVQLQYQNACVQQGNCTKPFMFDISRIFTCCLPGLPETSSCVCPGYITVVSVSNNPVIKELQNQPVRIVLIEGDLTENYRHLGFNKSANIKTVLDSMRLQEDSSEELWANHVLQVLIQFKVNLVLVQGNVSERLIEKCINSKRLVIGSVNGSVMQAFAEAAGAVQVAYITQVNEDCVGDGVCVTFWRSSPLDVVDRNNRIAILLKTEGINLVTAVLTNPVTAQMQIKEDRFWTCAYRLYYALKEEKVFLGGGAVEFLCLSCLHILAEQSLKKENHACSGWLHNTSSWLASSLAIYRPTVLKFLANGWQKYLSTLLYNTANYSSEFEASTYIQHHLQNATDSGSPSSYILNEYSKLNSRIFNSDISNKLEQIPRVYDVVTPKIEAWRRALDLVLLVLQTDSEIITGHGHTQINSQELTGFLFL

Variants of: B1
Details: with bbs12_human BBS12, Q6ZW61

Variant | effect of a mutation on the interaction
MSRLEAKKPSLCKSEPLTTERVRTTLSVLKRIVTSCYGPSGRLKQLHNGFGGYVCTTSQSSALLSHLLVTHPILKILTASIQNHVSSFSDCGLFTAILCCNLIENVQRLGLTPTTVIRLNKHLLSLCISYLKSETCGCRIPVDFSSTQILLCLVRSILTSKPACMLTRKETEHVSALILRAFLLTIPENAEGHIILGKSLIVPLKGQRVIDSTVLPGILIEMSEVQLMRLLPIKKSTALKVALFCTTLSGDTSDTGEGTVVVSYGVSLENAVLDQLLNLGRQLISDHVDLVLCQKVIHPSLKQFLNMHRIIAIDRIGVTLMEPLTKMTGTQPIGSLGSICPNSYGSVKDVCTAKFGSKHFFHLIPNEATICSLLLCNRNDTAWDELKLTCQTALRVLQLTLKEPWALLGGGCTETHLAAYIRHKTHNDPESILKDDECTQTELQLIAEAFCSALESVVGSLEHDGGEILTDMKYGHLWSVQADSPCVANWPDLLSQCGCGLYNSQEELNWSFLRSTRRPFVPQSCLPHEAVGSASNLTLDCLTAKLSGLQVAVETANLILDLSYVIEDKN [H395R] | decreasing interaction strength
MSRLEAKKPSLCKSEPLTTERVRTTLSVLKRIVTSCYGPSGRLKQLHNGFGGYVCTASQSSALLSHLLVTHPILKILTASIQNHVSSFSDCGLFTAILCCNLIENVQRLGLTPTTVIRLNKHLLSLCISYLKSETCGCRIPVDFSSTQILLCLVRSILTSKPACMLTRKETEHVSALILRAFLLTIPENAEGHIILGKSLIVPLKGQRVIDSTVLPGILIEMSEVQLMRLLPIKKSTALKVALFCTTLSGDTSDTGEGTVVVSYGVSLENAVLDQLLNLGRQLISDHVDLVLCQKVIHPSLKQFLNMHRIIAIDRIGVTLMEPLTKMTGTQPIGSLGSICPNSYGSVKDVCTAKFGSKHFFHLIPNEATICSLLLCNRNDTAWDELKLTCQTALHVLQLTLKEPWALLGGGCTETHLAAYIRHKTHNDPESILKDDECTQTELQLIAEAFCSALESVVGSLEHDGGEILTDMKYGHLWSVQADSPCVANWPDLLSQCGCGLYNSQEELNWSFLRSTRRPFVPQSCLPHEAVGSASNLTLDCLTAKLSGLQVAVETANLILDLSYVIEDKN [T57A] | disrupting interaction strength
MSRLEAKKPSLCKSEPLTTERVRTTLSVLKRIVTSCYGPSGRLKQLHNGFGGYVCTTSQSSALLSHLLVTHPILKILTASIQNHVSSFSDCGLFTAILCCNLIENVQRLGLTPTTVIRLNKHLLSLCISYLKSETCGCRIPVDFSSTQILLCLVRSILTSKPACMLTRKETEHVSALILRAFLLTIPENAEGHIILGKSLIVPLKGQRVIDSTVLPGILIEMSEVQLMRLLPIKKSTALKVALFCTTLSGDTSDTGEGTVVVSYGVSLENAVLDQLPNLGRQLISDHVDLVLCQKVIHPSLKQFLNMHRIIAIDRIGVTLMEPLTKMTGTQPIGSLGSICPNSYGSVKDVCTAKFGSKHFFHLIPNEATICSLLLCNRNDTAWDELKLTCQTALHVLQLTLKEPWALLGGGCTETHLAAYIRHKTHNDPESILKDDECTQTELQLIAEAFCSALESVVGSLEHDGGEILTDMKYGHLWSVQADSPCVANWPDLLSQCGCGLYNSQEELNWSFLRSTRRPFVPQSCLPHEAVGSASNLTLDCLTAKLSGLQVAVETANLILDLSYVIEDKN [L277P] | decreasing interaction strength
